Experimental data published in article PMC7432781, “An EPR Study on the Interaction between the Cu(I) Metal Binding Domains of ATP7B and the Atox1 Metallochaperone” (International Journal of Molecular Sciences, 2020).
*: point of attachment. MTSL = MTSL nitroxide spin label (R1), CC1(C)C=C(CS*)C(C)(C)N1[O]

Target: T1, ATP7B metal binding domains 4-6, spin-labeled (human, UniProt P35670 356-633, MTSL nitroxide spin label (R1) on C358, C431 and C490)
T1 construct: No residue limits are printed; the printed primers translate to a start at GTCSTTL and an end at FHASLAQ followed by a stop codon; Printed mass 29.2 kDa; also called MBD4-6; ATP7B 4-6 domains; source: E. coli Origami 2, purified (chitin bead column, intein self-cleavage with DTT)
T1 sequence (looked up): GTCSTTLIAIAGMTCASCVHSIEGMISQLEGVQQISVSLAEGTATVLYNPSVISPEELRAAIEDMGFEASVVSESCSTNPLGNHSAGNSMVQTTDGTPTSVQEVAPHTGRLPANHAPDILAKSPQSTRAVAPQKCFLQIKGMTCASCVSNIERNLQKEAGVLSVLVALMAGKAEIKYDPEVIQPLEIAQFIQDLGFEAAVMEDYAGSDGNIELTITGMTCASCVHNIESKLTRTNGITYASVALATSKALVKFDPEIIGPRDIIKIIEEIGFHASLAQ
Assay: CW-EPR of spin-labeled proteins; X-band, room temperature (292 ± 5 K), in solution; Atox1 or sl-Atox1 added to spin-labeled MBDs at 1:1 (Atox1:MBD); with and without Cu(I); spin-labeled protein 0.01-0.03 mM
Details: both partners purified

B1: Atox1 metallochaperone, spin-labeled at C41 (natural protein, human)
chain: MPKHEFSVDMTCGGCAEAVSRVLNKLGGVKYDIDLPNKKVC(MTSL)IESEHSMDTLLATLKKTGKTVSYLGLE
notes: Atox1 copper metallochaperone, human; also called sl-Atox1; spin-labeled Atox1
B1: binds.

B2: Atox1 metallochaperone, wild-type, non spin-labeled (natural protein, human)
chain: MPKHEFSVDMTCGGCAEAVSRVLNKLGGVKYDIDLPNKKVCIESEHSMDTLLATLKKTGKTVSYLGLE
notes: Atox1 copper metallochaperone, human, wild type
B2: binds.
